T1: Abp1 SH3 (ABP1_YEAST), P15891
T1 chain: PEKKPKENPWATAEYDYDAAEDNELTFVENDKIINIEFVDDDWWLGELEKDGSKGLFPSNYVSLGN

The target of the test is T1, Abp1 SH3 (ABP1_YEAST), P15891. Nature of the test: SPOT array.
As for QQEQNTPPLPPKP [YCL008C 172-184], the normalised SPOT signal, Boehringer light units (BLU); mean over the file's lines of this peptide turned out to be 16.1.
As for RKTWESIPPKFRP [YOR236W 58-70], the figure is 1050; as for RATPVSTPVISKP [YHL007C 201-213], 61.6; as for QVEPTLDEELPKRP [YDR422C 627-640], 58.1.
As for REGQVLYDPEPFKP [YNL086W 58-71], the figure is 72.5; as for RAVSDFVPGFAKP [YDR122W 674-686], 198.
As for QPVIVNTPHLKKP [YHR064C 433-445], the figure is 83.3; as for RIFPPIDDPLPFKP [YDR284C 245-258], 92.4; as for QRKSLRRPTLSKP [YOR264W 128-140], 43.
Consider QWGVIIINKMPLKP [YDR434W 319-332], for which the normalised SPOT signal, Boehringer light units (BLU); mean over the file's lines of this peptide was 62.9.
RAIYTITPETSRP [YIL080W 1034-1046] showed a normalised SPOT signal, Boehringer light units (BLU); mean over the file's lines of this peptide of 49.8.
As for QPTERDEYKQPFKP [YPR175W 148-161], the figure is 19.8; as for QSMISTRSTPPARP [YHR073W 189-202], 3390; as for RDYYLSFPESERP [YDR242W 430-442], 41.
As for QYDEIHIPAPSKP [YER172C 459-471], the figure is 40.6.
As for QTPKVEKTEKPKKP [YLR287C-A 17-30], the figure is 33.2; as for QVHRHEPPVTSRP [YDL036C 175-187], 133; as for QVILTRVPHDIRP [YDR414C 52-64], 116.
RAAKLAAPENEKP [YOL040C 61-73] displayed a normalised SPOT signal, Boehringer light units (BLU); mean over the file's lines of this peptide of 4.4.
As for RGNDESKNGTPPRP [YLR353W 192-205], the figure is 89.4; as for RDPKTREPLQPRP [YGR084C 80-92], 297; as for RFSSVKTNRTPSKP [YOR196C 186-199], 159.
As for QQVPMPILQQPNRP [YNL278W 947-960], the figure is 113.
QVNSLTLPIWVRP [YNL169C 143-155] showed a normalised SPOT signal, Boehringer light units (BLU); mean over the file's lines of this peptide of 215.
As for QSTKKAPPPVVKP [YBR108W 772-784], the figure is 4860; as for QSTPQTMRQAPKRP [YNL298W 490-503], 7180.
As for RIESRNEPLKTRP [YMR201C 33-45], the figure is 196.
As for RIPVLPPPRSPNRP [YER158C 359-372], the figure is 7670.
RDRLGTLPPDLRP [YPR179C 274-286] registered a normalised SPOT signal, Boehringer light units (BLU); mean over the file's lines of this peptide of 201.
As for RFLPKPKVVGPPKP [YHR089C 121-134], the figure is 1660.
As to RHAFRITPQAERP [YLL057C 379-391], the normalised SPOT signal, Boehringer light units (BLU); mean over the file's lines of this peptide was 555.
As for RKKQKKKPTPTRP [YKL089W 337-349], the figure is 106; as for RKLTFADVKKPDKP [YMR273C 809-822], 62.6; as for RFKYSTNRGIPARP [YPL073C 76-89], 110.
Molecule RDRGVLQEIRPAKP [YMR302C 753-766] registered a normalised SPOT signal, Boehringer light units (BLU); mean over the file's lines of this peptide of 51.
As for RELGLTRPISQKP [YHL009W-B 360-372], the figure is 2940; as for RAVYTITPETSRP [YGR109W-B 1008-1020], 114; as for REYEKEFPGSYKP [YIL085C 485-497], 13.6.
As for QRFNNSNNSIPRKP [YPL032C 537-550], the figure is 627; as for QVADVQWSPHPAKP [YDR128W 69-82], 89.6.
In the case of RLLSTKKPMFDRP [YKL219W 373-385], the normalised SPOT signal, Boehringer light units (BLU); mean over the file's lines of this peptide was determined as 955.
As for RGQSLEHPVTKKP [YGR165W 94-106], the figure is 116; as for QRALAKDLIVPRRP [YGL099W 127-140], 42100; as for QSSTTTAAATPTKP [YHL004W 115-128], 160.
As for RLLLEFDEEYPNKP [YGL058W 54-67], the figure is 97.1.
As for QSQLTSIAAVPPKP [YDL030W 480-493], the figure is 92.9; as for QVSGTRQSPIPKKP [YML007W 308-321], 172.
For RERLRANPTDKKP [YOR023C 518-530], the normalised SPOT signal, Boehringer light units (BLU); mean over the file's lines of this peptide turned out to be 303.
As for RKSSDIGHIDPWRP [YOR156C 78-91], the figure is 77.8; as for RGTSASHSPRPFRP [YLL029W 24-37], 168; as for QRGQQGYPRQPQRP [YDR171W 23-36], 333.
As for RDESSILPKNYRP [YDR365C 307-319], the figure is 97.6.
As for RAQNSYQPMYQRP [YPL042C 7-19], the figure is 696; as for QTATTLSPAKARP [YOR178C 4-16], 122.

The record behind these values is PMC314469, “Protein Interaction Networks by Proteome Peptide Scanning” (PLoS Biology, 2004).
